Reference: paper PMC11096372

Columns and labels:
[1] = target: Cas7b, backbone subunit of the Synechocystis sp. PCC 6714 type I-B Cascade (Synechocystis sp. PCC 6714); experiment: cryo-EM structure; SEC-purified Cascade with crRNA and a 59-bp ATG-PAM dsDNA target; full R-loop (higher than 3.6 Å) and partial R-loop (3.8 Å) states
[2] = target: Cas11b, small subunit of the Synechocystis sp. PCC 6714 type I-B Cascade (Synechocystis sp. PCC 6714); experiment: as above

Substance | stoichiometry N [1] | stoichiometry N [2]
Cas7b, backbone subunit of the Synechocystis sp. PCC 6714 type I-B Cascade (natural protein) | 7 | –
Cas11b, small subunit of the Synechocystis sp. PCC 6714 type I-B Cascade (natural protein) | – | 3
